Binding result and Kd data for nine molecules are collected here from PMC4652764, “The La-related protein 1-specific domain repurposes HEAT-like repeats to directly bind a 5′TOP sequence”.

The Kd is a measure of binding affinity in units of concentration.

Data set [1] has as its target T1, LARP1 DM15 region (human, UniProt Q6PKG0 873-1023). The experiment in a line: EMSA; up to 30 uM protein; EMSA: 20 mM Tris-HCl pH 8, 150 mM NaCl, 10% glycerol, 1 mM DTT, 0.5 ug tRNA, 1 ug BSA, <2 nM RNA, 30 min on ice, native 0.5x TBE gel at 4 C. The following applies: protein: recombinant; tags: His6-MBP removed by TEV; glycine linker remnant; label: 5'-32P. Background: In EMSA bound probe runs differently from free probe, usually more slowly.

Data set [2] concerns the target T1, LARP1 DM15 region. The experiment in a line: EMSA; no specific binding; EMSA: 20 mM Tris-HCl pH 8, 150 mM NaCl, 10% glycerol, 1 mM DTT, 0.5 ug tRNA, 1 ug BSA, <2 nM RNA, 30 min on ice, native 0.5x TBE gel at 4 C. The following applies: protein: recombinant; tags: His6-MBP removed by TEV; glycine linker remnant; label: 5'-32P.
Data set [3] has as its target T1, LARP1 DM15 region. The experiment in a line: EMSA; EMSA: 20 mM Tris-HCl pH 8, 150 mM NaCl, 10% glycerol, 1 mM DTT, 0.5 ug tRNA, 1 ug BSA, <2 nM RNA, 30 min on ice, native 0.5x TBE gel at 4 C. The note with it: protein: recombinant; tags: His6-MBP removed by TEV; glycine linker remnant; label: 5'-32P.
In data set [4] the target is T1, LARP1 DM15 region. The experiment in a line: EMSA; tRNA and BSA competitors; ~500 nM when corrected for active protein; EMSA: 20 mM Tris-HCl pH 8, 150 mM NaCl, 10% glycerol, 1 mM DTT, 0.5 ug tRNA, 1 ug BSA, <2 nM RNA, 30 min on ice, native 0.5x TBE gel at 4 C. The following applies: protein: recombinant; tags: His6-MBP removed by TEV; glycine linker remnant; label: 5'-32P (EMSA, probing).

For data set [5], the target named is T1, LARP1 DM15 region. The experiment in a line: EMSA; two concentration-dependent complexes; EMSA: 20 mM Tris-HCl pH 8, 150 mM NaCl, 10% glycerol, 1 mM DTT, 0.5 ug tRNA, 1 ug BSA, <2 nM RNA, 30 min on ice, native 0.5x TBE gel at 4 C. The note with it: protein: recombinant; tags: His6-MBP removed by TEV; glycine linker remnant; label: 5'-32P.

Turning to GUGGCGCCUCGGAGGCGUUCAGCUGCUUCAAG (ssRNA) [RPS6 deltaTOP], the binding result in data set [1] was “no binding”.
With UUUUUUUUUUUUUUUU (ssRNA) [U16], the binding result in data set [2] is on record as “no binding”.
Consider CCUCUUUU (ssRNA) [RPS6 first 8 nt], for which the binding result in data set [3] was “no binding”.
On the same count and under the same terms, the value for CCUCUUUUCCG (ssRNA) [RPS6 first 11 nt] was “no binding”.
On the same count and under the same terms, the value for CACUUCUGCCGCCCCU (ssRNA) [RPL13A 5'TOP 16mer] was “no binding”; that for CCCCUUCUCCCCGGCGGUUA (ssRNA) [PABPC1 5'TOP 20mer] was “no binding”.
Take CCUCUUUUCCGUGGCGCCUC (ssRNA) [RPS6-20mer]: the Kd in data set [4] is 776 ± 26 nM.
On to CCUCUUUUCCGUGGCGCCUCGGAGGCGUUCAGCUGCUUCAAG (ssRNA) [RPS6-42mer], for which, in data set [5], the binding result is “binds”.
With AAAAAAAAAAAAAAAA (ssRNA) [A16], the binding result in data set [2] was “no binding”.
